Measurements reported in patent US20240247063A1 (Janssen / Centocor, published 2024).
Substitutions are numbered along the chain they refer to. In names and notes the source's numbering stands. Several values for one entry are separate records, joined by “and”; a condition that tells them apart may be missing. Equal entries are not always repeated.

B1: VB11 (anti-Vβ17/anti-CD123) bispecific antibody (bispecific antibody, human IgG4 S228P, kappa, F234A L235A)
heavy 1: QVQLQESGPGLVKPSETLSLTCTVSGYSITSGYFWNWIRQPPGKGLEWIGYISYDGSNNYNPSLKSRVTISRDTSKNQFSLKLSSVTAADTAVYYCASPSPGTGYAVDYWGQGTLVTVSSASTKGPSVFPLAPCSRSTSESTAALGCLVKDYFPEPVTVSWNSGALTSGVHTFPAVLQSSGLYSLSSVVTVPSSSLGTKTYTCNVDHKPSNTKVDKRVESKYGPPCPPCPAPEAAGGPSVFLFPPKPKDTLMISRTPEVTCVVVDVSQEDPEVQFNWYVDGVEVHNAKTKPREEQFNSTYRVVSVLTVLHQDWLNGKEYKCKVSNKGLPSSIEKTISKAKGQPREPQVYTLPPSQEEMTKNQVSLSCAVKGFYPSDIAVEWESNGQPENNYKTTPPVLDSDGSFFLVSRLTVDKSRWQEGNVFSCSVMHEALHNRFTQKSLSLSLGK
light 1: DIQMTQSPSSLSASVGDRVTITCRSSQSLVHSNGNTYLHWYQQKPGKAPKFLIYKVSNRFSGVPSRFSGSGSGTDFTLTISSLQPEDFATYYCSQSTHVPFTFGQGTKLEIKRTVAAPSVFIFPPSDEQLKSGTASVVCLLNNFYPREAKVQWKVDNALQSGNSQESVTEQDSKDSTYSLSSTLTLSKADYEKHKVYACEVTHQGLSSPVTKSFNRGEC
heavy 2: EVQLVQSGAEVKKPGESLKISCKGSGYSFTSYWISWVRQMPGKGLEWMGIIDPSDSDTRYSPSFQGQVTISADKSISTAYLQWSSLKASDTAMYYCARGDGSTDLDYWGQGTLVTVSSASTKGPSVFPLAPCSRSTSESTAALGCLVKDYFPEPVTVSWNSGALTSGVHTFPAVLQSSGLYSLSSVVTVPSSSLGTKTYTCNVDHKPSNTKVDKRVESKYGPPCPPCPAPEAAGGPSVFLFPPKPKDTLMISRTPEVTCVVVDVSQEDPEVQFNWYVDGVEVHNAKTKPREEQFNSTYRVVSVLTVLHQDWLNGKEYKCKVSNKGLPSSIEKTISKAKGQPREPQVYTLPPSQEEMTKNQVSLWCLVKGFYPSDIAVEWESNGQPENNYKTTPPVLDSDGSFFLYSRLTVDKSRWQEGNVFSCSVMHEALHNHYTQKSLSLSLGK
light 2: EIVLTQSPGTLSLSPGERATLSCRASQSVSSSYLAWYQQKPGQAPRLLIYGASSRATGIPDRFSGSGSGTDFTLTISRLEPEDFAVYYCQQDYGFPWTFGQGTKVEIKRTVAAPSVFIFPPSDEQLKSGTASVVCLLNNFYPREAKVQWKVDNALQSGNSQESVTEQDSKDSTYSLSSTLTLSKADYEKHKVYACEVTHQGLSSPVTKSFNRGEC
B2: VB13 (Vβ17×Null) bispecific antibody (bispecific antibody, human IgG4 S228P, kappa, F234A L235A)
heavy 1: B1 heavy 1
light 1: B1 light 1
heavy 2: not shown
light 2: not shown
notes: Knob-into-hole human IgG4; also called Vβ17XNULL; V 17 null control bispecific
B3: VB17B25 (PSMB410 × B17B21-N33S) (bispecific antibody, human IgG1, kappa, L234A L235A)
chain: not shown
heavy: QVQLQESGPGLVKPSETLSLTCTVSGYSITSGYFWNWIRQPPGKGLEWIGYISYDGSNNYNPSLKSRVTISRDTSKNQFSLKLSSVTAADTAVYYCASPSPGTGYAVDYWGQGTLVTVSSASTKGPSVFPLAPSSKSTSGGTAALGCLVKDYFPEPVTVSWNSGALTSGVHTFPAVLQSSGLYSLSSVVTVPSSSLGTQTYICNVNHKPSNTKVDKKVEPKSCDKTHTCPPCPAPEAAGGPSVFLFPPKPKDTLMISRTPEVTCVVVSVSHEDPEVKFNWYVDGVEVHNAKTKPREEQYNSTYRVVSVLTVLHQDWLNGKEYKCKVSNKALPAPIEKTISKAKGQPREPQVYTLPPSREEMTKNQVSLSCAVKGFYPSDIAVEWESNGQPENNYKTTPPVLDSDGSFFLVSKLTVDKSRWQQGNVFSCSVMHEALHNRFTQKSLSLSPGK
light: B1 light 1 with N33S
notes: First chain is the PSMB410 scFv-Fc; also called Vβ17B25; Vβ17×PSMA

Tests used:
[1] = molecular target: T1, T Cell Receptor Beta Variable 17 (Vβ17) on the surface of human T cells (human); assay: flow cytometry, binding to CD8+ T cells isolated from PBMCs, donor D203517
T1 construct: whole, on cells; Polyclonal Vβ17+ T cells of donors; also called V 17; Vb17

[2] = molecular target: T1, T Cell Receptor Beta Variable 17 (Vβ17) …; assay: flow cytometry, binding to CD8+ T cells isolated from PBMCs, donor HPU 08694
[3] = molecular target: T1, T Cell Receptor Beta Variable 17 (Vβ17) …; assay: flow cytometry, FLU MP 58-stimulated enriched CD8+ T cells, anti-human IgG4 Fc-PE
Protocol: Mouse anti-human IgG4 Fc-PE secondary antibody was used to detect the bispecific antibody.
Bispecific antibody binding affinities to CD8+ T cell were determined by flow cytometry.

[4] = molecular target: T1, T Cell Receptor Beta Variable 17 (Vβ17) …; assay: flow cytometry, CD8+ T cells from Vβ17 non-depleted PBMCs
[5] = molecular target: T1, T Cell Receptor Beta Variable 17 (Vβ17) …; assay: flow cytometry, binding to CD8+ T cells isolated from PBMCs, donor HPU 09381
[6] = molecular target: T1, T Cell Receptor Beta Variable 17 (Vβ17) …; assay: flow cytometry, binding to CD8+ T cells isolated from PBMCs (only the Vβ17 non-depleted curve rises)
[7] = molecular target: T2, CD123 on Kasumi-3 AML cells (human, UniProt P26951 19-378); assay: flow cytometry, binding to Kasumi3 AML cells
T2 construct: whole, on cells; also called interleukin-3 receptor; IL-3R

[8] = molecular target: T1, T Cell Receptor Beta Variable 17 (Vβ17) …; assay: flow cytometry, % binding, pan T cells of donor NHV21-07174
Protocol: (§1) Binding assay was done with isolated Pan T cells from 2 donors. Pan T cells were isolated from Whole PBMCs. 1 μL Live dead (1:1000 diluted) and Fc Block 2 μL/well was added. 100 μL of the cell suspension was seeded in 96 well V bottom plate at 100,000 cell per well and incubated for 10 minutes at 4° C. The plate was washed by adding 190 μL FACS buffer spun at 1500 rpm for 5 minutes. 100 μL diluted test antibodies was added to the plate and the plate was incubated at 37° C. 5% CO₂ for 45 minutes. Wash step was repeated. 100 μL diluted Secondary antibody (0.5 μL/well in 100 μL FACS buffer) was added and the plate was incubated at 4° C. for 45 minutes. Wash step was repeated. 100 μL cytofix was added to the pellet and the plate was incubated at 4° C. for 10 minutes. Wash step was repeated. 100 μL FACS buffer was added to the pellet and sample was analyzed by Flow cytometry. Cells were gated on FSC/SSC, followed by live cell gating.

[9] = molecular target: T1, T Cell Receptor Beta Variable 17 (Vβ17) …; assay: flow cytometry, % binding, pan T cells of donor NHV21-07171
Protocol: as §1

[10] = molecular target: T1, T Cell Receptor Beta Variable 17 (Vβ17) …; assay: flow cytometry, MFI, pan T cells of donor NHV21-07174
Protocol: as §1

[11] = molecular target: T1, T Cell Receptor Beta Variable 17 (Vβ17) …; assay: flow cytometry, MFI, pan T cells of donor NHV21-07171
Protocol: as §1

[12] = molecular target: T3, prostate-specific membrane antigen (PSMA) on C4-2B cells (human, UniProt Q04609 1-750); assay: flow cytometry on C4-2B cells, APC secondary antibody
T3 construct: whole, on cells
T3 sequence (Q04609 whole entry): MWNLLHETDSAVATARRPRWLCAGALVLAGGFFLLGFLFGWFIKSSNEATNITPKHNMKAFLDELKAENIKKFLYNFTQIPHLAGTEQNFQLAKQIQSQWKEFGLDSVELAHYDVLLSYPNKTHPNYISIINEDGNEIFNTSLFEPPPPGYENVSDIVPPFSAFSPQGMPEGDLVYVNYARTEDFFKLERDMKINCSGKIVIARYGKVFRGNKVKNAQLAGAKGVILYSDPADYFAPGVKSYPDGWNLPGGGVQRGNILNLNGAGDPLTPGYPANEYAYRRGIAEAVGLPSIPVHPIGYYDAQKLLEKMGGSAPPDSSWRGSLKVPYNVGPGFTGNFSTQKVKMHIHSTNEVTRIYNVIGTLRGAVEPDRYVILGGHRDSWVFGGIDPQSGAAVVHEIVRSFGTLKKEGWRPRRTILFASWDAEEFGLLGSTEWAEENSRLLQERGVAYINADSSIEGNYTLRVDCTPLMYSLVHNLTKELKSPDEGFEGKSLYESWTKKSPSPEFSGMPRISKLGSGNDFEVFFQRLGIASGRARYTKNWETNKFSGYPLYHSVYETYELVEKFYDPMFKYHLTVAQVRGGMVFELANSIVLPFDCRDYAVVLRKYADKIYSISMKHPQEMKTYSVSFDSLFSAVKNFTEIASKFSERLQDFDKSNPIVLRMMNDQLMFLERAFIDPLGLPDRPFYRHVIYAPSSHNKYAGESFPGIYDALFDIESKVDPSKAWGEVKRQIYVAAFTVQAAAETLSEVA
Protocol: The C4-2B cells were centrifuged and re-suspended in DPBS and counted. 4 million cells were re-suspended in 8 mL of DPBS and 8 μL of Violet Fluorescent Dye was added and incubated for 15 min. in 4° C. Eight milliliters FACS buffer was added to neutralize mix and 200 μL per well was seeded. The plate was centrifuged and re-suspended in 100 μL of antibody dilutions accordingly and incubated for 30 min. in incubator. 10 μg/mL conc. of each antibodies were prepared in 200 μL stock and further diluted to 8 points by adding 60 μL to 120 μL of FACS serially buffer to get 3-fold dilution. 100 μL of FACS buffer were added to each well, centrifuged, re-suspended in 100 μL FACS buffer with 0.5 μL/well con. Secondary antibody tagged with APC & incubated for 30 min. 4° C. Next, 100 μL of FACS buffer was added to each well, centrifuged, re-suspended in 100 μL BD Cytofix & incubated for 10 min. 4° C. 100 μL of FACS buffer were added to each well, centrifuged, re-suspended in 100 μL FACS buffer, stored at 4° C. Data was acquired in Flow cytometer and the data was analyzed.

T1 sequence (A0A075B6N1 22-114): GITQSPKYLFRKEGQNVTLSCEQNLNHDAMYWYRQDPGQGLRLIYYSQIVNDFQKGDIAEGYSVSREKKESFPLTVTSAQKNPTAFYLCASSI
T2 sequence (P26951 19-378): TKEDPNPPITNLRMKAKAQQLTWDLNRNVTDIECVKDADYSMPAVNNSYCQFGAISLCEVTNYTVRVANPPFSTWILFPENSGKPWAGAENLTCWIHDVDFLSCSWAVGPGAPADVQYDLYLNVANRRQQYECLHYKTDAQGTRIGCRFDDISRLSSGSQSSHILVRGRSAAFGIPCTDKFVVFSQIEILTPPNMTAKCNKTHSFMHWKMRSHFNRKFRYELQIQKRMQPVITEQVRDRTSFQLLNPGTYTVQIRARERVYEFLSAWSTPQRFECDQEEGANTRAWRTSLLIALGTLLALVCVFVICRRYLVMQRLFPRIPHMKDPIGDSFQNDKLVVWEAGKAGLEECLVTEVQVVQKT

Binder | EC50 [1] | EC50 (read off the curve) [1] | EC50 [2] | EC50 (read off the curve) [2] | EC50 [3] | EC50 (read off the curve) [4] | EC50 [5] | EC50 (read off the curve) [5] | EC50 [6] | binding result [7] | EC50 [8] | EC50 [9] | EC50 [10] | EC50 [11] | EC50 [12]
B1 | 1.26 nM | ~0.2 µg/mL | 1.9 nM | ~0.2 µg/mL | 1.35 µg/mL and 9 nM | ~0.2 µg/mL | 0.8 nM | ~0.1 µg/mL | 12.2 nM |  |  |  |  |  | 
B2 | 1.4 nM | ~0.2 µg/mL | 1.5 nM | ~0.3 µg/mL | 2.8 µg/mL and 18.7 nM | ~0.3 µg/mL | 1.5 nM | ~0.2 µg/mL | 12.6 nM | no binding (tested: about 20 µg/mL) |  |  |  |  | 
B3 |  |  |  |  |  |  |  |  |  |  | 0.2 µg/mL | 0.3 µg/mL | ~3 µg/mL | 1.5 µg/mL | 2.1 µg/mL
